Data: patent US20130266582A1 (YEDA RESEARCH AND DEVELOPMENT, published 2013)

Tests used:
[1] = target: the molecule itself; assay: analytical size exclusion chromatography (Superdex 200) of immunopurified Flag-DAPk
From the text: Immunopurified Flag-DAPk was loaded onto an analytical Superdex™ 200 10/300 (GE Healthcare) gel-filtration column equilibrated with TBS. The eluting protein was detected by UV absorbance at 280 nm. Fractions were collected using the AKTA Prime fraction collector and analyzed by Western blot with anti-Flag antibodies. The migration position of the fractions containing Flag-DAPk was assigned relative to the migration position of Gel Filtration Calibration HMW standards (GE Healthcare) on the same column.
It elutes in two clearly defined peaks corresponding to ˜640 kDa and ˜320 kDa (FIG. 1D). […] Furthermore, the absence of a peak at the 160 kDa size range excluded the existence of monomers under native conditions. Fractions were collected at indicated elution points and submitted to western blot analysis, confirming DAPk identity at the selected peaks (FIG. 1E).

[2] = target: T1, HA-DAPk (N-terminal hemaglutinin-tagged human full-length death-associated protein kinase) (human, UniProt P53355 1-1430); assay: co-immunoprecipitation with anti-Flag beads from co-transfected HEK 293T cells, western blot (FIG. 2B)
T1 construct: also called HA-DAPk (WT); DAPk WT; not shown: N-terminal HA (hemaglutinin) tag
Protocol: FIG. 2A, Schematic representation of the different DAPk constructs utilized for mapping DAPk homo-oligomerization. The indicated domains: Kinase domain (KD); Ca⁺²/Calmodulin binding region (CaM); Ankyrin repeats (AK); P-Loop; Ras of complex proteins domain (ROC); C-terminal of ROC domain (COR); Death domain (DD); and Serine (Ser) rich tail. […] Immunoprecipitation with anti-Flag beads (IP-α-Flag) was performed and immuno-complexes and cell extracts were analyzed by western blot. FIG. 2C, Cells co-transfected with Flag-DAPk and one of the different HA-tagged DAPk constructs, namely HA-DAPk (WT), HA-ΔROC—a deletion between amino acids 667-954; HA-ΔKinase—a N-terminal deletion (1-285); and ΔROC/ΔKinase—deletion of both KD (1-285) and ROC domain (667-954). Immunoprecipitation and western blot were performed as in B. FIG. 2D, Cells co-transfected with Flag-ROC and HA-ROC; HA-ROC and Flag-ROC-Δ-P-loop; Flag-ROC and HA-DAPk (WT); Flag-ROC-Δ-P-Loop and HA-DAPk (WT); or HA-ROC and DAP1-Flag.
Immunoprecipitation with anti-Flag beads (IP-α-Flag) was performed and immuno-complexes and cell extracts were analyzed by western blot. […] Thus, ROC fragment by itself is sufficient to bind the full length DAPk. Also the ROC fragments interacted with each other (FIG. 2D). […] Together the experiments in FIG. 2B-D established the role of the ROC domain in mediating homo-oligomerization.

Row | Binder | binding result [1] | binding result [2]
1 | Flag-DAPk (N-terminal Flag-tagged human full-length death-associated protein kinase) (enzyme, bait in anti-Flag immunoprecipitation; also called full length DAPk; not shown: N-terminal Flag tag) MTVFRQENVDDYYDTGEELGSGQFAVVKKCREKSTGLQYAAKFIKKRRTKSSRRGVSREDIEREVSILKEIQHPNVITLHEVYENKTDVILILELVAGGELFDFLAEKESLTEEEATEFLKQILNGVYYLHSLQIAHFDLKPENIMLLDRNVPKPRIKIIDFGLAHKIDFGNEFKNIFGTPEFVAPEIVNYEPLGLEADMWSIGVITYILLSGASPFLGDTKQETLANVSAVNYEFEDEYFSNTSALAKDFIRRLLVKDPKKRMTIQDSLQHPWIKPKDTQQALSRKASAVNMEKFKKFAARKKWKQSVRLISLCQRLSRSFLSRSNMSVARSDDTLDEEDSFVMKAIIHAINDDNVPGLQHLLGSLSNYDVNQPNKHGTPPLLIAAGCGNIQILQLLIKRGSRIDVQDKGGSNAVYWAARHGHVDTLKFLSENKCPLDVKDKSGEMALHVAARYGHADVAQLLCSFGSNPNIQDKEEETPLHCAAWHGYYSVAKALCEAGCNVNIKNREGETPLLTASARGYHDIVECLAEHGADLNACDKDGHIALHLAVRRCQMEVIKTLLSQGCFVDYQDRHGNTPLHVACKDGNMPIVVALCEANCNLDISNKYGRTPLHLAANNGILDVVRYLCLMGASVEALTTDGKTAEDLARSEQHEHVAGLLARLRKDTHRGLFIQQLRPTQNLQPRIKLKLFGHSGSGKTTLVESLKCGLLRSFFRRRRPRLSSTNSSRFPPSPLASKPTVSVSINNLYPGCENVSVRSRSMMFEPGLTKGMLEVFVAPTHHPHCSADDQSTKAIDIQNAYLNGVGDFSVWEFSGNPVYFCCYDYFAANDPTSIHVVVFSLEEPYEIQLNQVIFWLSFLKSLVPVEEPIAFGGKLKNPLQVVLVATHADIMNVPRPAGGEFGYDKDTSLLKEIRNRFGNDLHISNKLFVLDAGASGSKDMKVLRNHLQEIRSQIVSVCPPMTHLCEKIISTLPSWRKLNGPNQLMSLQQFVYDVQDQLNPLASEEDLRRIAQQLHSTGEINIMQSETVQDVLLLDPRWLCTNVLGKLLSVETPRALHHYRGRYTVEDIQRLVPDSDVEELLQILDAMDICARDLSSGTMVDVPALIKTDNLHRSWADEEDEVMVYGGVRIVPVEHLTPFPCGIFHKVQVNLCRWIHQQSTEGDADIRLWVNGCKLANRGAELLVLLVNHGQGIEVQVRGLETEKIKCCLLLDSVCSTIENVMATTLPGLLTVKHYLSPQQLREHHEPVMIYQPRDFFRAQTLKETSLTNTMGGYKESFSSIMCFGCHDVYSQASLGMDIHASDLNLLTRRKLSRLLDPPDPLGKDWCLLAMNLGLPDLVAKYNTSNGAPKDFLPSPLHALLREWTTYPESTVGTLMSKLRELGRRDAADFLLKASSVFKINLDGNGQEAYASSCNSGTSYNSISSVVSR | binds | –
2 | DAP1-Flag (C-terminal Flag-tagged death-associated protein 1) (other, UniProt P51397 2-102, looked up, Irrelevant Flag-tagged control protein; not shown: C-terminal Flag tag) SSPPEGKLETKAGHPPAVKAGGMRIVQKHPHTGDTKEEKDKDDQEWESPSPPKPTVFISGVIARGDKDFPPAAAQVAHQKPHASMDKHPSPRTQHIQQPRK | – | no binding
